The values below come from the supplement of paper PMC9112550, “Optimization of the antimicrobial peptide Bac7 by deep mutational scanning” (BMC Biology, 2022).
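Further: peptides expressed intracellularly from a pBAD plasmid library in pooled LB shake-flask culture, induced with 0.3% L-arabinose, DNA abundance read by NGS, three biological replicates, DESeq2 with apeglm shrinkage.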

The test system of the series is Escherichia coli TOP10. As to the kind of experiment: shrunken log2 fold change of peptide-encoding DNA abundance (4.5 h post-induction vs induction); higher = less antimicrobial activity (less host growth inhibition). Particulars: time post-induction: 4.5 h; library: site-saturation at positions 5, 18, 19, 20.
Turning to RRIRERPPRLPRPRPRPQCYPRP, the “shrunken log2 fold change” value is -0.186.
In the case of RRIRERPPRLPRPRPRPVMVPRP it was 0.204; in that of RRIRSRPPRLPRPRPRPCYRPRP, 0.0109; in that of RRIRYRPPRLPRPRPRPHWLPRP, -0.0432.
In the case of RRIRCRPPRLPRPRPRPMAGPRP, the “shrunken log2 fold change” value is -0.0712.
As for RRIRARPPRLPRPRPRPLICPRP, the “shrunken log2 fold change” value was determined as 0.341.
Under RRIRNRPPRLPRPRPRPTKHPRP stands -0.0431.
On to RRIRWRPPRLPRPRPRPRIMPRP, for which the “shrunken log2 fold change” value was 0.12.
In the case of RRIRFRPPRLPRPRPRPHFTPRP it was -0.489.
In the case of RRIRIRPPRLPRPRPRPGPAPRP it was 0.383.
In the case of RRIRKRPPRLPRPRPRPMDLPRP it was 0.198.
Regarding RRIRWRPPRLPRPRPRPSEYPRP, the “shrunken log2 fold change” value was -0.221.
In the case of RRIRARPPRLPRPRPRPDAFPRP it was 0.879.
Under RRIRCRPPRLPRPRPRPPWWPRP stands 2.01; under RRIRDRPPRLPRPRPRPEKMPRP, -0.00458.
Under RRIRNRPPRLPRPRPRPMSQPRP stands -0.0161.
With RRIRGRPPRLPRPRPRPWQLPRP, the “shrunken log2 fold change” value stood at 0.372.
Under RRIRCRPPRLPRPRPRPSFEPRP stands -0.508; under RRIRTRPPRLPRPRPRPMQEPRP, -0.0701; under RRIRDRPPRLPRPRPRPYQRPRP, 0.058.
In the case of RRIRSRPPRLPRPRPRPGPLPRP it was 0.292.
In the case of RRIRIRPPRLPRPRPRPKRIPRP it was 0.0468; in that of RRIRVRPPRLPRPRPRPECMPRP, 0.283.
As for RRIRYRPPRLPRPRPRPEAFPRP, the “shrunken log2 fold change” value is -0.00226.
In the case of RRIRLRPPRLPRPRPRPMKFPRP it was 0.0807.
Under RRIRTRPPRLPRPRPRPYWYPRP stands -0.574; under RRIRWRPPRLPRPRPRPIWPPRP, 0.684; under RRIRIRPPRLPRPRPRPMCSPRP, -0.119.
Consider RRIRNRPPRLPRPRPRPYLAPRP, for which the “shrunken log2 fold change” value was -0.327.
Under RRIRFRPPRLPRPRPRPMYDPRP stands -0.244; under RRIRTRPPRLPRPRPRPNQRPRP, 0.181.
In the case of RRIRFRPPRLPRPRPRPKDLPRP it was 0.0796; in that of RRIRVRPPRLPRPRPRPQYHPRP, -0.648; in that of RRIRPRPPRLPRPRPRPHLAPRP, 0.0568.
Under RRIRKRPPRLPRPRPRPWQVPRP stands -0.0062; under RRIRRRPPRLPRPRPRPVSHPRP, 0.218; under RRIRLRPPRLPRPRPRPWNEPRP, -0.11.
Consider RRIRPRPPRLPRPRPRPKRIPRP, for which the “shrunken log2 fold change” value was -0.155.
In the case of RRIRARPPRLPRPRPRPDGQPRP it was 0.0234; in that of RRIRQRPPRLPRPRPRPNCYPRP, -0.284.
In the case of RRIRYRPPRLPRPRPRPRCYPRP it was 0.0145; in that of RRIRERPPRLPRPRPRPDYDPRP, -0.021; in that of RRIRFRPPRLPRPRPRPNPHPRP, -0.428.
Under RRIRPRPPRLPRPRPRPDGQPRP stands 0.204; under RRIRPRPPRLPRPRPRPCGCPRP, 0.098.
With RRIRFRPPRLPRPRPRPQSTPRP, the “shrunken log2 fold change” value was -0.249.
In the case of RRIRCRPPRLPRPRPRPHFGPRP it was -0.219; in that of RRIRLRPPRLPRPRPRPKMSPRP, -0.0245.
In the case of RRIRYRPPRLPRPRPRPQKAPRP, the “shrunken log2 fold change” value is -0.0304.
Under RRIRVRPPRLPRPRPRPNCGPRP stands 0.0742; under RRIRSRPPRLPRPRPRPAPIPRP, 0.133; under RRIRWRPPRLPRPRPRPIDKPRP, -0.105.
Take RRIRTRPPRLPRPRPRPFDDPRP: the “shrunken log2 fold change” value worked out at 0.0564.
In the case of RRIRPRPPRLPRPRPRPGIEPRP it was -0.00839; in that of RRIRHRPPRLPRPRPRPVVRPRP, 0.112.
In the case of RRIRERPPRLPRPRPRPSTIPRP it was -0.551.
Under RRIRRRPPRLPRPRPRPSPMPRP stands 1.54.
Take RRIRWRPPRLPRPRPRPYSQPRP: the “shrunken log2 fold change” value was -0.425.
Regarding RRIRRRPPRLPRPRPRPAGWPRP, the “shrunken log2 fold change” value was determined as 0.593.
Consider RRIRRRPPRLPRPRPRPRCPPRP, for which the “shrunken log2 fold change” value stood at 0.605.
Turning to RRIRHRPPRLPRPRPRPLFVPRP, the “shrunken log2 fold change” value was -0.471.
As for RRIRKRPPRLPRPRPRPYANPRP, the “shrunken log2 fold change” value is -0.091.
